T1: Atg19 (S. cerevisiae, UniProt P35193 1-415)
T1 construct: Atg19, S. cerevisiae; printed without a tag; also called Atg19 wild type
T1 sequence (looked up): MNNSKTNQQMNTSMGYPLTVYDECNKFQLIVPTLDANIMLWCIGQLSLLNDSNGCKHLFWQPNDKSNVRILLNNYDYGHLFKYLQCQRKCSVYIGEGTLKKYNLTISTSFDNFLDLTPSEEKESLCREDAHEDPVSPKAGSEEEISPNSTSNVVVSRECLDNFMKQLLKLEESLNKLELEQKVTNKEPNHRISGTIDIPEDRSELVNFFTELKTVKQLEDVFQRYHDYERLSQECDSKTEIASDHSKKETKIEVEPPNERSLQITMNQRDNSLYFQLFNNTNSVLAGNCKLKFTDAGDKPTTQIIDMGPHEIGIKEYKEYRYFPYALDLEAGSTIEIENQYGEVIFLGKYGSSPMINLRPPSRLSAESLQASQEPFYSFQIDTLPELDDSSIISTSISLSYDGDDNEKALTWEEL

T2: GST-Atg19 (S. cerevisiae, UniProt P35193 1-415)
T2 construct: Atg19, S. cerevisiae cargo receptor; also called full length GST-Atg19; Atg19 full length; source: E. coli Rosetta pLysS, purified; not shown: GST, N-terminal, kept
T2 sequence (looked up): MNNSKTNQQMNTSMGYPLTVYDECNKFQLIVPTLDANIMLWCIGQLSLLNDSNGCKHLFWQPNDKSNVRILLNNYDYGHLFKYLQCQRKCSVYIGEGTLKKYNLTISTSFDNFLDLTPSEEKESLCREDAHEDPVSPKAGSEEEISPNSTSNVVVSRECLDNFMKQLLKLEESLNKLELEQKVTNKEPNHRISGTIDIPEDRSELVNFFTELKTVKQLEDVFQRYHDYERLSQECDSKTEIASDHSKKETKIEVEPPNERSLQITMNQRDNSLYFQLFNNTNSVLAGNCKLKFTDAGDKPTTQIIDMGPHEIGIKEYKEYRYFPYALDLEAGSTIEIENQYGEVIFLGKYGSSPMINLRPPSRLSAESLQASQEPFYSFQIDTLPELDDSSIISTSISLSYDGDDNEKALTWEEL

T3: Atg5-mCherry-Atg16 (1–46) complex (S. cerevisiae, UniProt Q12380 1-294; Q03818 1-46)
T3 construct: Atg5, S. cerevisiae; Atg16, S. cerevisiae, first 46 amino acids; a TEV site follows the His tag of Atg5; no cleavage is described; source: E. coli Rosetta pLysS, co-expressed, purified (Ni-NTA, Superdex 200); not shown: mCherry, C-terminal, kept
T3 sequence (looked up) 1: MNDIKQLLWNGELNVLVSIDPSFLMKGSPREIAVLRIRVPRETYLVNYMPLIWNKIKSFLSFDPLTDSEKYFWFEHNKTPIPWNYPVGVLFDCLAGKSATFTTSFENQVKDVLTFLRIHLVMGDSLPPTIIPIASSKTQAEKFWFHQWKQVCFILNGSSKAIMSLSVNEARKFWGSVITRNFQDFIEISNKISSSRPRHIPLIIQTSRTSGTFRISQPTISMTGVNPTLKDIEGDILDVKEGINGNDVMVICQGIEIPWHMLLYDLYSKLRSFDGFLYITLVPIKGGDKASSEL
T3 sequence (looked up) 2: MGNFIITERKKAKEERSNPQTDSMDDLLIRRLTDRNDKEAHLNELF

T4: Atg5-Atg16 complex (S. cerevisiae, UniProt Q12380 1-294; Q03818 1-150)
T4 construct: Atg5, S. cerevisiae; Atg16, S. cerevisiae; source: E. coli Rosetta pLysS; Atg5 cleaved from GST mixed 1:1 with purified Atg16, purified by size exclusion chromatography; not shown: GST, N-terminal, cleaved
T4 sequence (looked up) 1: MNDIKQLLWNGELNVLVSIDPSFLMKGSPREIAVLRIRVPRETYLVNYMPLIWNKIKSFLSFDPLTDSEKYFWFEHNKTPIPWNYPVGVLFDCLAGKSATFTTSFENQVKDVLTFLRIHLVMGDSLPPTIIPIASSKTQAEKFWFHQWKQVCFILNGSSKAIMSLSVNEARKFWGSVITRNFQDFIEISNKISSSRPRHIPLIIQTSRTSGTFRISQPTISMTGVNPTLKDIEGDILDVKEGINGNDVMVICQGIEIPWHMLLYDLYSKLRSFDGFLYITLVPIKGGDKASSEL
T4 sequence (looked up) 2: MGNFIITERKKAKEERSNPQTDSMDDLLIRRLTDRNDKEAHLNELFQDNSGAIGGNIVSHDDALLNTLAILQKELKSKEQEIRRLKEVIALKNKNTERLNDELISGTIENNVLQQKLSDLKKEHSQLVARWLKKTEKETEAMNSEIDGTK

T5: Atg5-Atg16 (1–46) (S. cerevisiae, UniProt Q12380 1-294; Q03818 1-46)
T5 construct: Atg5, S. cerevisiae; Atg16, S. cerevisiae, first 46 amino acids; the His tag of Atg5 is followed by a TEV site; also called Atg5 stabilized with the N-terminal helix of Atg16; Atg5-Atg16 (1–46) wild type; source: E. coli, co-expressed and purified in complex
T5 sequence 1: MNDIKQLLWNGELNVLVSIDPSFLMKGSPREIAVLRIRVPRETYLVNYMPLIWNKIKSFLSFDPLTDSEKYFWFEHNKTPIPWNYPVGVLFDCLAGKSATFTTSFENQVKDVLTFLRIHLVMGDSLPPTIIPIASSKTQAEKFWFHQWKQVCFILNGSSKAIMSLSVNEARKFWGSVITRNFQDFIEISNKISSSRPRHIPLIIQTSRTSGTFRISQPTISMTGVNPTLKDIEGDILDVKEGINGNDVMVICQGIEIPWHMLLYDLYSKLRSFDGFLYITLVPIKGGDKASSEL
T5 sequence 2: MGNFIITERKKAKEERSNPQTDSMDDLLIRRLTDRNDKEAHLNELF

T6: GFP-Atg8∆R117 (S. cerevisiae, UniProt P38182 1-116)
T6 construct: Atg8, S. cerevisiae, without its last residue R117; also called meGFP-Atg8∆R117; 6xHis-meGFP-Atg8∆R117; source: E. coli Rosetta pLysS, purified; not shown: meGFP, N-terminal, kept
T6 sequence (looked up): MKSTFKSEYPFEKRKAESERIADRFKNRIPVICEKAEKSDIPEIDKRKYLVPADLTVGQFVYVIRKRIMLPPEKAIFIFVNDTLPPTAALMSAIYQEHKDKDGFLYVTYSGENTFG


How the values were obtained:
Details in all cases: both partners purified
[1] = target: T1, Atg19; assay: SEC; Atg19 and Atg5-Atg16 (1–46) premixed at 55 µM, concentrated to 580 µM, Superose 6 PC 3.2/30, 25 mM HEPES pH 7.5, 150 mM NaCl, 1 mM DTT; fractions on Coomassie gels
[2] = target: T2, GST-Atg19; assay: pull-down; GST-fused bait 20 µM and GST-free prey 5 µM with glutathione Sepharose 4B, 1 hr at 4°C; washed with 25 mM HEPES pH 7.5, 150 mM NaCl, 1 mM DTT; anti-Atg5 Western blot (Figure 2E, Figure 3—figure supplement 1, Figure 4C)
[3] = target: T3, Atg5-mCherry-Atg16 (1–46) complex; assay: microscopy-based protein-protein interaction assay on beads; glutathione beads coated with GST-fused proteins at 30 µM, Atg5-mCherry-Atg16 (1–46) 18 µM, equilibrium (Figure 3B, C)
[4] = target: T4, Atg5-Atg16 complex; assay: pull-down; GST-fused bait 20 µM and GST-free prey 5 µM with glutathione Sepharose 4B, 1 hr at 4°C; washed with 25 mM HEPES pH 7.5, 150 mM NaCl, 1 mM DTT; anti-Atg5 Western blot (Figure 2E, Figure 3—figure supplement 1, Figure 4C)
[5] = target: T5, Atg5-Atg16 (1–46); assay: as above
[6] = target: T6, GFP-Atg8∆R117; assay: microscopy-based competition assay on beads; beads coated with GST-Atg19(365–415) at 30 µM, Atg5-mCherry-Atg16 (1–46) 18 µM; then GFP-Atg8∆R117 18 µM (1x), then Atg8 400 µM (22x); 25 mM HEPES pH 7.5, 150 mM NaCl, 1 mM DTT (Figure 3E, F)

| binding result [3] | binding result [5] | Binder | also measured |
| --- | --- | --- | --- |
|  |  | Atg5-Atg16 (1–46) for analytical size exclusion chromatography (complex, S. cerevisiae, Atg5, S. cerevisiae; Atg16, S. cerevisiae, first 46 amino acids; source: E. coli Rosetta pLySS, co-expressed, purified (glutathione beads, thrombin, Superdex 200); not shown: GST, N-terminal, cleaved) chain 1: MNDIKQLLWNGELNVLVSIDPSFLMKGSPREIAVLRIRVPRETYLVNYMPLIWNKIKSFLSFDPLTDSEKYFWFEHNKTPIPWNYPVGVLFDCLAGKSATFTTSFENQVKDVLTFLRIHLVMGDSLPPTIIPIASSKTQAEKFWFHQWKQVCFILNGSSKAIMSLSVNEARKFWGSVITRNFQDFIEISNKISSSRPRHIPLIIQTSRTSGTFRISQPTISMTGVNPTLKDIEGDILDVKEGINGNDVMVICQGIEIPWHMLLYDLYSKLRSFDGFLYITLVPIKGGDKASSEL chain 2: MGNFIITERKKAKEERSNPQTDSMDDLLIRRLTDRNDKEAHLNELF | binding result [1]: binds |
|  |  | Atg5(R208E)-Atg16 (1–46) (complex, S. cerevisiae, Atg5, S. cerevisiae; Atg16, S. cerevisiae, first 46 amino acids; source: E. coli, co-expressed and purified in complex) chain 1: MNDIKQLLWNGELNVLVSIDPSFLMKGSPREIAVLRIRVPRETYLVNYMPLIWNKIKSFLSFDPLTDSEKYFWFEHNKTPIPWNYPVGVLFDCLAGKSATFTTSFENQVKDVLTFLRIHLVMGDSLPPTIIPIASSKTQAEKFWFHQWKQVCFILNGSSKAIMSLSVNEARKFWGSVITRNFQDFIEISNKISSSRPRHIPLIIQTSETSGTFRISQPTISMTGVNPTLKDIEGDILDVKEGINGNDVMVICQGIEIPWHMLLYDLYSKLRSFDGFLYITLVPIKGGDKASSEL chain 2: MGNFIITERKKAKEERSNPQTDSMDDLLIRRLTDRNDKEAHLNELF | binding result [2]: binds |
| binds | binds | GST-Atg19(365–415) (domain or fragment, S. cerevisiae, UniProt P35193 365-415, looked up, Atg19, S. cerevisiae, C-terminal domain; also called Atg19 C-terminal domain; Atg19 CTD (365-415); source: E. coli Rosetta pLysS, purified; not shown: GST, N-terminal, kept) SAESLQASQEPFYSFQIDTLPELDDSSIISTSISLSYDGDDNEKALTWEEL | binding result [4]: binds; binding result [6]: binds |
| binds | binds | SAESLQASQEPFYSFQIDTLPELDDSSIISTSISLSYDGDDNE (domain or fragment, S. cerevisiae, UniProt P35193 365-407, looked up, Atg19, S. cerevisiae; also called Atg19 C-terminal domain with the canonical AIM motif deleted; source: E. coli Rosetta pLysS, purified; not shown: GST, N-terminal, kept) [GST-Atg19(365–407)] |  |
